The values that follow come from publication PMC4731314 (Cell reports, 2016).

Usually stoichiometry N stands for a count of units in the complex or per binding partner.

The data set deals with the molecule itself. In words: AUC.

B1: full-length Imp2 purified from S. pombe (natural protein, UniProt Q10199 1-670, looked up)
chain: MSQQLSFNASSAKPDKSFSNYFWGANDEGYHALLSRFSDVKHINEELRSFYHERANIEEDYAKRMAKLSRTTFSSLETGCLKESVQVMKAEVDNMAKSHLQISQLLQDDVENAFTRYAASLKDKKKMIVSGIEKVHKDKLSKHQALVKAQDKYHYLCKKVNYYVSQQNMLFGKELEKNNAKLNKTQNAITASSSDYQSAVAAVRDSYARWTNEWRSTCDKLQDIEEERRHFLKSVMWTFTLLISRSCFNDDQACERIRKNLEQCSVSQDVLEFIDAKSTGTGIPQPPKFYDYYKGEVPDDSVELVQANFQRAQTKIENDNMPLNRPYVLSATARNESSFENTLPNTPSAIQSLTTVSSNSSQNGRSSPKKSFLSKFKLTSRPSTPNVGNTAPDALSSPRNDSPLTSAADEQMKHLSLQEEPKQNPTPAAPGAFPNSNTLPPRYNELGSLPSPNSVSFTEDSRPNVNTPSRRQQIQEEFGSVLQMENRAVSPVYDSRKNGSRSSFTLRKSRSPKRPSSSLSQNASRLPRSLTPGNLEPNYDFGVRVDPASGTAPTDDEPYTDRDSSFVDDTINTKATGNTSNRLSLPAYPTDGGDTSIDNPTSTDGQRILGYVSALYDYDAAIPEEISFRKGDTIAVLKLYEDGWWEGFVVGEDDHNRGQFPSNFVREIEV
As to B1, the binding result is on record as “binds”.

B2: Imp2(Dimer-Dimer-4A) purified from S. pombe (natural protein, UniProt Q10199 1-670, looked up)
chain: MSQQLSFNASSAKPDKSFSNYFWGANDEGYHALLSRFSDVKHINEELRSFYHERANIEEDYAKRMAKLSRTTFSSLETGCLKESVQVMKAEVDNMAASHLAISQLLQDAVENAFTAYAASLKDKKKMIVSGIEKVHKDKLSKHQALVKAQDKYHYLCKKVNYYVSQQNMLFGKELEKNNAKLNKTQNAITASSSDYQSAVAAVRDSYARWTNEWRSTCDKLQDIEEERRHFLKSVMWTFTLLISRSCFNDDQACERIRKNLEQCSVSQDVLEFIDAKSTGTGIPQPPKFYDYYKGEVPDDSVELVQANFQRAQTKIENDNMPLNRPYVLSATARNESSFENTLPNTPSAIQSLTTVSSNSSQNGRSSPKKSFLSKFKLTSRPSTPNVGNTAPDALSSPRNDSPLTSAADEQMKHLSLQEEPKQNPTPAAPGAFPNSNTLPPRYNELGSLPSPNSVSFTEDSRPNVNTPSRRQQIQEEFGSVLQMENRAVSPVYDSRKNGSRSSFTLRKSRSPKRPSSSLSQNASRLPRSLTPGNLEPNYDFGVRVDPASGTAPTDDEPYTDRDSSFVDDTINTKATGNTSNRLSLPAYPTDGGDTSIDNPTSTDGQRILGYVSALYDYDAAIPEEISFRKGDTIAVLKLYEDGWWEGFVVGEDDHNRGQFPSNFVREIEV
Regarding B2, the “stoichiometry N” value worked out at 2.
